Test [1] addresses His-tagged truncated SARS-CoV-2 E protein (residues 8-65) (SARS-CoV-2) (UniProt P0DTC4). The test is described as follows: AUC.
The target of test [2] is Full-length SARS-CoV-2 envelope (E) protein (SARS-CoV-2) (UniProt P0DTC4). Kind of test: AUC.

Values joined by “and” are separate entries in the source; they are usually repeats but may differ in a detail not shown here. Identical values can stand only once.

What is called stoichiometry N is the number of molecules, sites or subunits per partner or assembly. In test [1], “His-tagged truncated SARS-CoV-2 E protein (residues 8-65) (from UniProt P0DTC4 8-65) (domain or fragment)” showed a Log10 Ka (monomers to pentamer) of 16, a percent of the sample as trimers of 60% and a stoichiometry N of 3.
With “Full-length SARS-CoV-2 envelope (E) protein (from UniProt P0DTC4 1-75) (natural protein)”, in test [2], the Log10 Ka (monomers to pentamer) was determined as 17.4; the percent of the sample as pentamers was determined as 80%; the stoichiometry N was 3 and 5.

Values taken from article PMC9658050.
